Measured values as given in patent publication US20170137818, “APTAMER INHIBITING BIOLOGICAL ACTIVITY OF AUTOTAXIN BY BINDING WITH AUTOTAXIN, AND USE THEREOF” (RIBOMIC INC., published 2017).

B1: SEQ 25 aptamer (ssDNA)
DNA: ACACTCACAGGCGCTGGCGACGTCGGAACCGTGTACCATGGTCACGTCGTGCATGGCCGCTAGT
B2: SEQ 6 aptamer (ssDNA)
DNA: GTGGTCTAGCTGTACTCGGAACCGTACTCAACGGTCAGTACCTTTGCGCCGCAGCAAGCCACAGTCAACGAGCTA
B3: SEQ 20 aptamer (ssDNA)
DNA: ACACTCACAGGCGCTGGGGTACGCTCGGAACCGAGGCAATTGGTCAGCGTGCATGGCCGCTAGT
B4: SEQ 10 aptamer (ssDNA)
DNA: GTGGTCTAGCTGTACTCGCCGGAACCGTACTATGGTCGCGTTGTATGACGCTTGTATCCACAGTCAACGAGCTA
B5: SEQ 21 aptamer (ssDNA)
DNA: ACACTCACAGGCGCTGGCCACCACTGCACCGGAACCGCGAATGTGGTCGTGCATGGCCGCTAGT
B6: SEQ 24 aptamer (ssDNA)
DNA: ACACTCACAGGCGCTGGCGAGTCGGAACCGAGCCGATTGGTCACTCGCGTGCATGGCCGCTAGT
B7: SEQ 9 aptamer (ssDNA)
DNA: GTGGTCTAGCTGTACTCAGGCCGGAACCGGTGAAATTGGTCGCCTAATAAGCGAAATCCACAGTCAACGAGCTA
B8: SEQ 23 aptamer (ssDNA)
DNA: ACACTCACAGGCGCTGGCACGGACCGGAACCGGGACGCTCGGTCGACCGTGCATGGCCGCTAGT
B9: SEQ 22 aptamer (ssDNA)
DNA: ACACTCACAGGCGCTGGCCGGAACCGTGCATATGGTCGCCAGCACATCGTGCATGGCCGCTAGT
B10: 12(61) (ssDNA)
DNA: CCTGGACGGAACCAGAATACTTTTGGTCTCCAGG
modifications: 2'-OMe C7,G9,A14,G15,A19,C20,A32,G33,G34; P-methyl C12 (between C12 and C13); 5' idT, 3' idT
B11: 12(51) (ssDNA)
DNA: B10 DNA
modifications: 2'-OMe C7,G9,A14,G15,A19,C20,A32,G33,G34; 5' 80 kDa PEG (GL2-800TS) via ssH linker; 3' idT
B12: 12(140) (ssDNA)
DNA: B10 DNA
modifications: 2'-OMe C7,G9,A14,G15,A19,C20,A32,G33,G34; P-methyl C1,G5,G8,C12,G15,A16,T21,T23,C28,C30,C31; idT 5' and 3'
B13: 12(146) (ssDNA)
DNA: B10 DNA
modifications: 2'-OMe C7,G9,A14,G15,A19,C20,A32,G33,G34; P-methyl C1,G5,G8,C12,A14,A16,T21,T23,C28,C30,C31; 5' 40 kDa PEG (GL2-400GS2) via ssH linker; 3' idT
B14: 12(133) (ssDNA)
DNA: B10 DNA
modifications: 2'-OMe C7,G9,A14,G15,A19,C20,A32,G33,G34; P-methyl G8,C12,C28; 5' 40 kDa PEG via ssH linker, 3' idT
B15: 12(132) (ssDNA)
DNA: B10 DNA
modifications: 2'-OMe C7,G9,A14,G15,A19,C20,A32,G33,G34; P-methyl C1,G5,G8,C12,A16,T21,T23,C28,C30,C31; 5' idT, 3' idT
B16: 12(136) (ssDNA)
DNA: B10 DNA
modifications: 2'-OMe C7,G9,A14,G15,A19,C20,A32,G33,G34; P-methyl C1,G5,G8,C12,A16,T21,T23,C28,C30,C31,G33; idT 5' and 3'
B17: 12(53) (ssDNA)
DNA: B10 DNA
modifications: 2'-OMe C7,G9,A14,G15,A19,C20,A32,G33,G34; 5' 80 kDa PEG (GL4-800TS) via ssH linker; 3' idT

Assays:
autotaxin (ENPP2/NPP2) [1] = biological target: T1, autotaxin (ENPP2/NPP2) (Homo sapiens, UniProt Q13822 Q13822:36-863); assay: inhibition; NPP2 assay, 37 C
[2] = biological target: T2, autotaxin (endogenous, human pooled serum) (Homo sapiens, UniProt Q13822 Q13822:36-863); assay: inhibition; LPA production in serum, 0.10 uM
autotaxin (ENPP2/NPP2) [3] = biological target: T1, autotaxin (ENPP2/NPP2); assay: inhibition; LPA production, 0.20 uM aptamer, ~92% serum, 37C 3 h
autotaxin (ENPP2/NPP2) [4] = biological target: T1, autotaxin (ENPP2/NPP2); assay: inhibition; LPA production, 0.025 uM aptamer, ~92% serum, 37C 3 h
[5] = biological target: T2, autotaxin (endogenous, human pooled …); assay: inhibition; LPA production in serum, 0.025 uM
autotaxin (ENPP2/NPP2) [6] = biological target: T1, autotaxin (ENPP2/NPP2); assay: inhibition; LPA production, 1.0 uM aptamer, ~92% serum, 37C 3 h

Row | Binder | IC50 (autotaxin (ENPP2/NPP2) [1]) [nM] | also measured
1 | CGCTGGGGTACGCTCGGAACCGAGGCAATTGGTCAGCG (ssDNA) [SEQ 26 aptamer] | 440 | –
2 | B1 | 31 | –
3 | B2 | 20 | –
4 | B3 | 37 | –
5 | B4 | 21 | –
6 | GGGACGGAACCAGAATACTTTTGGTCTCCC (ssDNA) [SEQ 14 aptamer] | 42 | –
7 | B5 | 28 | –
8 | CTGGACGGAACCAGAATACTTTTGGTCTCCAG (ssDNA) [SEQ 16 aptamer] | 18 | –
9 | B6 | 32 | –
10 | TGGACGGAACCAGAATACTTTTGGTCTCCA (ssDNA) [SEQ 13 aptamer] | 110 | –
11 | B7 | 36 | –
12 | TACGCTCGGAACCGAGGCAATTGGTCAGCGTG (ssDNA) [SEQ 27 aptamer] | 24 | –
13 | B8 | 75 | –
14 | B9 | 30 | –
15 | B10 | – | activity [2]: 91 % inhibition
16 | B11 | – | activity (autotaxin (ENPP2/NPP2) [3]): 91 % inhibition
17 | B12 | – | activity (autotaxin (ENPP2/NPP2) [4]): 29 % inhibition
18 | B13 | – | activity (autotaxin (ENPP2/NPP2) [4]): 70 % inhibition
19 | B14 | – | activity [5]: 90 % inhibition
20 | B15 | – | activity [5]: 59 % inhibition
21 | CCTGGACGGAACCAGAATACTTTTGGTCTCCAGG (ssDNA, 2'-OMe C7,G9,A14,G15,A19,C20,A32,G33,G34; P-methyl G8,C12,C28; 5' idT, 3' idT) [12(119)] | – | activity [2]: 97 % inhibition
22 | B16 | – | activity (autotaxin (ENPP2/NPP2) [4]): 17 % inhibition
23 | CCTGGACGGAACCAGAATACTTTTGGTCTCCAGG (ssDNA, 2'-OMe C1,G5,C7,G9,C12,A14,G15,A19,C20,A32,G33,G34; idT 5' and 3') [12(43)] | – | activity (autotaxin (ENPP2/NPP2) [6]): 85 % inhibition
24 | CCTGGACGGAACCAGAATACTTTTGGTCTCCAGG (ssDNA, 2'-OMe C7,G9,A14,G15,A19,C20,A32,G33,G34; P-methyl G8; 5' idT, 3' idT) [12(92)] | – | activity [2]: 91 % inhibition
25 | CCTGGACGGAACCAGAATACTTTTGGTCTCCAGG (ssDNA, 2'-OMe C1,G5,C7,G9,C12,C13,A14,G15,A19,C20,C30,A32,G33,G34; idT 5' and 3') [12(47)] | – | activity (autotaxin (ENPP2/NPP2) [6]): 57 % inhibition
26 | B17 | – | activity (autotaxin (ENPP2/NPP2) [3]): 92 % inhibition
